According to US6753317:
Non-standard residues stand in square brackets, D forms with d. *: point of attachment. Dmt = Cc1cc(O)cc(C)c1C[C@H](N)C(=O)O; Tic = O=C(O)[C@@H]1Cc2ccccc2CN1; NHNH2 = NN*

What was measured:
[1] = molecular target: µ-opioid receptor (rat brain synaptosomal preparation) (rat) (UniProt P33535); experiment: radioligand competition vs [^3H]DAGO, rat brain synaptosomes
[2] = molecular target: δ-opioid receptor (rat brain synaptosomal preparation) (rat) (UniProt P33533); experiment: radioligand competition vs [^3H]DPDPE, rat brain synaptosomes
Chain of δ-opioid receptor (rat brain synaptosomal preparation) (rat) (P33533 whole entry, stated change not applied): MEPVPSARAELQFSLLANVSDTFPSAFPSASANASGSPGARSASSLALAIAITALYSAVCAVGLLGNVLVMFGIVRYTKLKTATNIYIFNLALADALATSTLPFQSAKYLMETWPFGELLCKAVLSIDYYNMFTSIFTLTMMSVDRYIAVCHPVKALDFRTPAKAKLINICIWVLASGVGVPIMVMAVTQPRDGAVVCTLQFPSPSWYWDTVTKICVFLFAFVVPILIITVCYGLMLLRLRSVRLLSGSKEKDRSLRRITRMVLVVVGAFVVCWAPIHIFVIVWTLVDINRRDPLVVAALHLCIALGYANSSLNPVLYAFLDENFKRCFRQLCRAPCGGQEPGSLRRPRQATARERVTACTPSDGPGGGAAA

[3] = molecular target: δ-opioid receptor (rat brain synaptosomal preparation) (rat) (UniProt P33533); experiment: radioligand competition vs [^3H]N,N(CH3)2-Dmt-Tic-OH, rat brain synaptosomes
[4] = molecular target: δ-opioid receptor of the mouse vas deferens (MVD) (mouse) (UniProt P32300); experiment: cell-based or functional assay
Chain of δ-opioid receptor of the mouse vas deferens (MVD) (mouse) (P32300 whole entry, stated change not applied): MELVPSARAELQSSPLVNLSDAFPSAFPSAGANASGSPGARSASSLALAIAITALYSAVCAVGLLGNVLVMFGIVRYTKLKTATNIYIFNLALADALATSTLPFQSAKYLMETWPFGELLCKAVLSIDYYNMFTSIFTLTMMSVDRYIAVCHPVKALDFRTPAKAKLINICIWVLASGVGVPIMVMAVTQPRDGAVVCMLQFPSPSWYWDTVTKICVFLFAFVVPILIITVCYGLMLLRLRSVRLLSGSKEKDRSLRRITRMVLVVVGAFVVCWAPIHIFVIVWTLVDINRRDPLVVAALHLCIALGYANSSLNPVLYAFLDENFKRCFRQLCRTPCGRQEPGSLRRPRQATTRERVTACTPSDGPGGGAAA

Chain of µ-opioid receptor (rat brain synaptosomal preparation) (rat) (P33535 whole entry): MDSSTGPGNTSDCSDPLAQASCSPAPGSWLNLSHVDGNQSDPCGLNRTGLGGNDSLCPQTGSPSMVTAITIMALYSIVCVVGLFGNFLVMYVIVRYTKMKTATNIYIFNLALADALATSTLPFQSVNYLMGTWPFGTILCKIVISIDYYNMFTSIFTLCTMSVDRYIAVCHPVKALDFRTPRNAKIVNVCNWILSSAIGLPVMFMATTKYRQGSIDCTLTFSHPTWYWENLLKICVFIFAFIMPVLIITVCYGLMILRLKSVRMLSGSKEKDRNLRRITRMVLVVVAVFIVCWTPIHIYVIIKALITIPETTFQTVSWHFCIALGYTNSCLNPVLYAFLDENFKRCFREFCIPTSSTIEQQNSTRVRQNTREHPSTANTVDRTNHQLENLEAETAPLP

Substance	Ki [1]	Ki [2]	Ki [3]	MVD pA2 [4]	fold rise of µ affinity relative to N,N(Me)2-Dmt-Tic-OH [1]
H-Dmt-βTic-OH (peptide)	418 nM	0.85 nM	0.71 nM		
cyclo (DMT-Tic) (peptide)		9.58 nM		5.43	
H-Dmt-Tic-Ala-NH-tBu (peptide)	4.03 nM	0.066 nM	0.08 nM		
N,N(Me)2-Dmt-D-Tic-NH-1-adamantane (peptide)	50.5 nM	140 nM	120 nM		
[des-NH2-α-pyrrolidine-1-yl]-Dmt-Tic-OH (peptide)	814 nM	1.62 nM	1.42 nM		
H-αDmt-Tic-OH (peptide)	1740 nM	11.2 nM	475 nM		
N,N(Et)2-DMT-Tic-OH (peptide)		0.92 nM			
N,N(Me)2-Dmt-Tic-NH-tBu (peptide)	226 nM	0.61 nM	0.11 nM		
N,N(Me)2-Dmt-Tic-NH-1-adamantane (peptide)	1.12 nM	0.16 nM	0.12 nM		2200 fold
H-(R,S)Dmt-Tic-OH (peptide)	1160 nM	0.46 nM	0.8 nM		
H-Dmt-Tic-NH-tetrazole-5-yl (peptide)	37 nM	0.7 nM	9.75 nM		
H-Dmt-Tic-Ala-NH2 (peptide)	47 nM	0.24 nM	0.69 nM		
H-[Dmt]-[Tic]-OMe	423 nM	9.64 nM	500 nM		
H-Dmt-Tic-NH-tBu (peptide)	5.96 nM	0.43 nM	0.93 nM		
[des-NH2-α-pyrrole-1-yl]-Dmt-Tic-OH (peptide)	5590 nM	16.6 nM	9.94 nM		
H-Dmt-Tic-Ala-OH (peptide)	813 nM	0.29 nM	0.29 nM		
H-[Dmt]-[Tic]-NHNH2	85.1 nM	0.99 nM	42 nM		
H-Dmt-D-Tic-NH-1-adamantane (peptide)	0.26 nM	24.5 nM	70.3 nM		
H-Dmt-Tic-Ala-OMe (peptide)	11.3 nM	0.23 nM	0.14 nM		
H-[Dmt]-[Tic]-OH	3320 nM				
H-Dmt-Tic-NH-1-adamantane (peptide)	0.76 nM	0.26 nM	1.01 nM		
N,N(Me)2-Dmt-Tic-NHMe (peptide)	359 nM	0.54 nM	0.28 nM		
H-Dmt-Tic-Ala-NHMe (peptide)	5.75 nM	0.058 nM	0.12 nM		
[des-NH2-α-piperidine-1-yl]-Dmt-Tic-OH (peptide)	2040 nM	1.18 nM	0.74 nM		
H-Dmt-Tic-Ala-NH-1-adamantane (peptide)	2.52 nM	0.073 nM	0.04 nM		
H-[Dmt]-[Tic]-NH2		1.22 nM	2.13 nM		
H-[Dmt]-[Tic]-NHMe	85.5 nM	0.47 nM	1.24 nM		
N,N(Me)2-Dmt-Tic-OH (peptide)	2440 nM	0.12 nM	0.07 nM		
